Among the data in PMC3880865 are Km (UbcH5B~Ub) of CBL47–435 pY371 autoubiquitination, Michaelis-Menten, 22°C and Kd values, retold here.

Where two headings read alike, the source gives them in different places.

For one test, the target named is CBL47–435 pY371 (human) (UniProt P22681).
Test [1] addresses GST-CBL47–435 WT (human) (UniProt P22681). Put plainly: SPR.
Test [2] addresses GST-CBL47–435 M222E (human) (UniProt P22681). As to the kind of experiment: SPR.
The target of test [3] is GST-CBL47–435 Y371F (human) (UniProt P22681). As to the kind of experiment: SPR.
Test [4] deals with GST-CBL47–435 Y368F (human) (UniProt P22681). As to the kind of experiment: SPR.
The target of test [5] is GST-CBL47–435 Y368F pY371 (human) (UniProt P22681). Put plainly: SPR.
In test [6] the target is GST-CBL47–435 WT (human) (UniProt P22681). Put plainly: SPR. The source holds these as a separate data set.
Sequence of GST-CBL47–435 WT (human) (P22681 47-435): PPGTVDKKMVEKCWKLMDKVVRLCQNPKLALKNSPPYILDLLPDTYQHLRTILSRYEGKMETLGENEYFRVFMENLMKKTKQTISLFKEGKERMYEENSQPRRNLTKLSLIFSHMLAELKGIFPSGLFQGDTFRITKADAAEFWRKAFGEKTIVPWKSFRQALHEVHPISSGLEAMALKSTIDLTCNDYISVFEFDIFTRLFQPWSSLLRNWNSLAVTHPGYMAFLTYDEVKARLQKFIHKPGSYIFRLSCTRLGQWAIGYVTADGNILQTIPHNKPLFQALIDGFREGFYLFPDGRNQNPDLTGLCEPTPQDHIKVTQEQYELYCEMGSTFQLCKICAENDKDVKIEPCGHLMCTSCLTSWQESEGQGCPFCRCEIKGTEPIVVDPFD

Sequence of UbcH5B (from UniProt P62837 1-147) (enzyme; other documents disagree on this pair) (P62837 whole entry): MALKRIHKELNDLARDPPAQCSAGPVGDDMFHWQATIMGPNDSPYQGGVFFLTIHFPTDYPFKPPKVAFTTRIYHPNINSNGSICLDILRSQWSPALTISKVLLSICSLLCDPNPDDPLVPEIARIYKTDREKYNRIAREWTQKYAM
Sequence of GST-CBL47–435 Y368F pY371 (human) (P22681 47-435 Y368F): as the sequence (P22681 47-435) above, with Y322F counted along it
Sequence of GST-CBL47–435 Y371F (human) (P22681 47-435 Y371F): as the sequence (P22681 47-435) above, with Y325F counted along it
Sequence of GST-CBL47–435 M222E (human) (P22681 47-435 M222E): as the sequence (P22681 47-435) above, with M176E counted along it
Sequence of UbcH5B (from UniProt P62837 1-147) (enzyme) (P62837 whole entry): as the sequence (P62837 whole entry) above
Sequence of CBL47–435 pY371 (human) (P22681 47-435): as the sequence (P22681 47-435) above
Sequence of GST-CBL47–435 Y368F (human) (P22681 47-435 Y368F): as the sequence (P22681 47-435) above, with Y322F counted along it

Regarding “UbcH5B (from UniProt P62837 1-147) (enzyme)”, in the test with CBL47–435 pY371 (human), the Km (UbcH5B~Ub) of CBL47–435 pY371 autoubiquitination, Michaelis-Menten, 22°C is 6.5 μM.

As for “UbcH5B (from UniProt P62837 1-147) (enzyme; other documents disagree on this pair)”, the Kd in the test with GST-CBL47–435 WT (human) [1] was 311 µM; in test [2] it was 70 µM; in test [3] it was 250 µM; in test [4], 138 µM; in test [5], 28 µM; with GST-CBL47–435 WT (human) [6] it was 244 µM.

Regarding ZAP-70 peptide, the Kd turned out to be 17 µM in the test with GST-CBL47–435 WT (human) [1] and 11 µM in test [5].
